Data as given in US20060211624A1, “Methods and compositions for the treatment of parkinson's disease and other alpha-synucleinopathies” (Goverment of the US, as Represented by, priority 2003, published 2006).

Biological target: purified recombinant human α-synuclein protein, P37840

B1: purified guinea pig liver tTGase (protein)
chain: AEDLILERCDLQLEVNGRDHRTADLCRERLVLRRGQPFWLTLHFEGRGYEAGVDTLTFNAVTGPDPSEEAGTMARFSLSSAVEGGTWSASAVDQQDSTVSLLLSTPADAPIGLYRLSLEASTGYQGSSFVLGHFILLYNPRCPADAVYMDSDQERQEYVLTQQGFIYQGSAKFINGIPWNFGQFEDGILDICLMLLDTNPKFLKNAGQDCSRRSRPVYVGRVVSAMVNCNDDQGVLQGRWDNNYSDGVSPMSWIGSVDILRRWKDYGCQRVKYGQCWVFAAVACTVLRCLGIPTRVVTNFNSAHDQNSNLLIEYFRNESGEIEGNKSEMIWNFHCWVESWMTRPDLEPGYEGWQALDPTPQEKSEGTYCCGPVPVRAIKEGHLNVKYDAPFVFAEVNADVVNWIRQKDGSLRKSINHLVVGLKISTKSVGRDEREDITHTYKYPEGSEEEREAFVRANHLNKLATKEEAQEETGVAMRIRVGQNMTMGSDFDIFAYITNGTAESHECQLLLCARIVSYNGVLGPVCSTNDLLNLTLDPFSENSIPLHILYEKYGDYLTESNLIKVRGLLIEPAANSYVLAERDIYLENPEIKIRVLGEPKQNRKLIAEVSLKNPLPVPLLGCIFTVEGAGLTKDQKSVEVPDPVEAGEQAKVRVDLLPTEVGLHKLVVNFECDKLKAVKGYRNVIIGPA
B1 was tested, and the “formation of high molecular weight aggregates of α-synuclein (in vitro cross-linking reaction, SDS/PAGE and Western blot)” value was “In the presence of DTT, the reduced form of tTGase induced the formation of high molecular weight aggregates of α-synuclein”.
